This note sets out measurements from US20230279119A1 (published 2023).

The experiment deals with T1, recombinant αvβ8 ectodomain (UniProt P06756 31-992; P26012 43-684, limits assumed).
T1 construct: extracellular domain; the ELISA and TMLC assays say only 'recombinant αvβ8'; also called immobilized αvβ8; integrin αvβ8
In words: scFv KD; method not stated (yeast-displayed scFv library was sorted with recombinant αvβ8 ectodomain).

T1 sequence (P06756 31-992 limits assumed, chain 1 of 2): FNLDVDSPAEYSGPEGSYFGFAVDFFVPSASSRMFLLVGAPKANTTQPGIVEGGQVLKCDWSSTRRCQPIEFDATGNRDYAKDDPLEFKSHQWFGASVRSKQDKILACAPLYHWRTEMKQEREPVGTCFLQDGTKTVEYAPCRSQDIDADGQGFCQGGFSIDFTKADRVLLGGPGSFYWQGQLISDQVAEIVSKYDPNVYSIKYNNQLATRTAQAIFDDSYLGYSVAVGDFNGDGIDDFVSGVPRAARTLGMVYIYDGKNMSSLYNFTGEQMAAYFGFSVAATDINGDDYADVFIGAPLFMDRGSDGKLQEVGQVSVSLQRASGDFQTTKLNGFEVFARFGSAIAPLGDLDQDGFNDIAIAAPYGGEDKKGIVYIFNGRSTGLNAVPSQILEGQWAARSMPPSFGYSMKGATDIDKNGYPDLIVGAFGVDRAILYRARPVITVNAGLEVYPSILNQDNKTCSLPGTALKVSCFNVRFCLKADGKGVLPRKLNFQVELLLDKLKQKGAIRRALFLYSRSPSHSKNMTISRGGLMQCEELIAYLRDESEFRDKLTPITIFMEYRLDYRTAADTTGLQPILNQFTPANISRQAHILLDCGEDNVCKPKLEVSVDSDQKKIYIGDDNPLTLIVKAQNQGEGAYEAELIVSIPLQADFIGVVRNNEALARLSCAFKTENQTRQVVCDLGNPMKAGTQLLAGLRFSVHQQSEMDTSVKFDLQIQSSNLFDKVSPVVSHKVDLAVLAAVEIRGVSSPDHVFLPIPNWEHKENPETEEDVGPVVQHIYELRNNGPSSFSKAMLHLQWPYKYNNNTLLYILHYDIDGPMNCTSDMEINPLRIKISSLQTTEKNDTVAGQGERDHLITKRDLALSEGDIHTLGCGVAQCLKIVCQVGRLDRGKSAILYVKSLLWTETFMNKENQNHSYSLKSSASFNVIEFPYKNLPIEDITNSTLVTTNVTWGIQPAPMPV
T1 sequence (P26012 43-684 limits assumed, chain 2 of 2): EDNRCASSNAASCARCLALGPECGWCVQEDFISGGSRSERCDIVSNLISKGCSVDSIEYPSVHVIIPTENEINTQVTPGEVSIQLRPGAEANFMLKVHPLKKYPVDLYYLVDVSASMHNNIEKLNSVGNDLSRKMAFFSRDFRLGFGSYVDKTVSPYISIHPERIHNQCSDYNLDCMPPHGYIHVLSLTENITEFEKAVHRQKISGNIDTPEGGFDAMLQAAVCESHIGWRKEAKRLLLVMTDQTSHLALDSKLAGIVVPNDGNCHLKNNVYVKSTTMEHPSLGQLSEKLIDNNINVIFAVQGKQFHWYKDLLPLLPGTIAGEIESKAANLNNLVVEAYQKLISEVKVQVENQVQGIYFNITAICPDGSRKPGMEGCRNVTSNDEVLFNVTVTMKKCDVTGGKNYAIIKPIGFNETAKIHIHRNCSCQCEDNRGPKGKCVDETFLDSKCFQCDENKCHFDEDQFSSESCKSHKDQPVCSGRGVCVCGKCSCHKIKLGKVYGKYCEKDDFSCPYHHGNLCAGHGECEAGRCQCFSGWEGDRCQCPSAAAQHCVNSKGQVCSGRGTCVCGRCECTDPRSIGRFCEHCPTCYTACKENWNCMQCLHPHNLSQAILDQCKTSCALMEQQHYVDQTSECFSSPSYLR

B1: C6D4 scFv (scFv, V domains shown)
VH: QIQLVQSGPELKKPGETVKISCKASGYTFTDYSMHWVKQAPGKGLKWVARINTETGEPTFADDFRGRFAVSLETSASTAYLQINNLKNEDTATYFCAIFYYGRDSWGQGTTLTVSS
VL: DIVMTQSPSSLAVSAGEKVTMSCKSSQSLLNSRTRKNYLAWYQQKPGQSPRLLIYWASTRESGVPDRFTGSGSGTDFTLTISSVQAEDLAVYYCKQSYNLLSFGAGTKLELK
notes: not shown: The scFv linker, the domain order, and the yeast-display partner and tags (vector pYD4)
By Kd is commonly meant the equilibrium constant for the complex coming apart. With B1, the Kd turned out to be 7.25 nM.

B2: HuC6D4F12 scFv (scFv, V domains shown)
VH: QIQLVQSGAEVKKPGASVKISCKASGYTFTKYSMHWVRQAPGQGLEWVARINTETGEPTFADDFRGRFTVTLDTSTSTAYLEIRSLRSDDTAVYFCAIFYYGRDTWGQGTTLTVSS
VL: EIVMTQSPATLSVSPGERVTMSCKSSQSLLHSRSRKNYLAWYQQKPGQAPRLLIYWASTRESGVPARFSGSGSGTEFTLTISSVQSEDFAVYYCKQSYNLLSFGQGTVLEIK
notes: as for B1
In the case of B2, the Kd stood at 0.39 nM.
